In US20050182242A1, “Global analysis of protein activities using proteome chips” (priority 2001, published 2005):

B1: Smd1p: U1 snRNP component (protein, UniProt Q02260 1-146, looked up)
Small nuclear …: MKLVNFLKKLRNEQVTIELKNGTTVWGTLQSVSPQMNAILTDVKLTLPQPRLNKLNSNGIAMASLYLTGGQQPTASDNIASLQYINIRGNTIRQIILPDSLNLDSLLVDQKQLNSLRRSGQIANDPSKKRRRDFGAPANKRPRRGL
B2: Bur6p: alpha-subunit of the NC2 (Dr1/Drap1) repressor of class II transcription (protein, UniProt P40096 1-142, looked up)
Negative cofactor 2 complex …: MADQVPVTTQLPPIKPEHEVPLDAGGSPVGNMGTNSNNNNELGDVFDRIKTHFPPAKVKKIMQTDEDIGKVSQATPVIAGRSLEFFIALLVKKSGEMARGQGTKRITAEILKKTILNDEKFDFLREGLCVEEGQTQPEEESA
B3: Hst3p: transcriptional silencer (protein, UniProt P53687 1-447, looked up)
NAD-dependent histone …: MTSVSPSPPASRSGSMCSDLPSSLQTEKLAHIIGLDADDEVLRRVTKQLSRSRRIACLTGAGISCNAGIPDFRSSDGLYDLVKKDCSQYWSIKSGREMFDISLFRDDFKISIFAKFMERLYSNVQLAKPTKTHKFIAHLKDRNKLLRCYTQNIDGLEESIGLTLSNRKLPLTSFSSHWKNLDVVQLHGDLKTLSCTKCFQTFPWSRYWSRCLRRGELPLCPDCEALINKRLNEGKRTLGSNVGILRPNIVLYGENHPSCEIITQGLNLDIIKGNPDFLIIMGTSLKVDGVKQLVKKLSKKIHDRGGLIILVNKTPIGESSWHGIIDYQIHSDCDNWVTFLESQIPDFFKTQDQIKKLRQLKREASDLRKQMKAQKDSIGTPPTTPLRTAQGIDIQGNNELNTKIKSLNTVKRKILSPENSSEEDEEENLDTRKRAKIRPTFGDNQAS
B4: Cmp2p: one of the two yeast calcineurins (protein)
chain: MSSDAIRNTEQINAAIKIIENKTERPQSSTTPIDSKASTVAAANSTATETSRDLTQYTLDDGRVVSTNRRIMNKVPAITSHVPTDEELFQPNGIPRHEFLRDHFKREGKLSAAQAARIVTLATELFSKEPNLISVPAPITVCGDIHGQYFDLLKLFEVGGDPATTSYLFLGDYVDRGSFSFECLIYLYSLKLNFNDHFWLLRGNHECKHLTSYFTFKNEMLHKYNLDIYEKCCESFNNLPLAALMNGQYLCVHGGISPELNSLQDINNLNRFREIPSHGLMCDLLWADPIEEYDEVLDKDLTEEDIVNSKTMVPHHGKMAPSRDMFVPNSVRGCSYAFTYRAACHFLQETGLLSIIRAHEAQDAGYRMYKNTKTLGFPSLLTLFSAPNYLDTYNNKAAILKYENNVMNIRQFNMTPHPYWLPDFMDVFTWSLPFVGEKVTEMLVAILNICTEDELENDTPVIEELVGTDKKLPQAGKSEATPQPATSASPKHASILDDEHRRKALRNKILAVAKVSRMYSVLREETNKVQFLKDHNSGVLPRGALSNGVKGLDEALSTFERARKHDLINEKLPPSLDELKNENKKYYEKVWQKVHEHDAKNDSK
modifications: left off: a dimerising Fc or GST
notes: one of the two yeast calcineurins
B5: Dst1p: yeast protein with a role in transcription elongation (protein, UniProt P07273 1-309, looked up)
Transcription elongation …: MDSKEVLVHVKNLEKNKSNDAAVLEILHVLDKEFVPTEKLLRETKVGVEVNKFKKSTNVEISKLVKKMISSWKDAINKNKRSRQAQQHHQDHAPGNAEDKTTVGESVNGVQQPASSQSDAMKQDKYVSTKPRNSKNDGVDTAIYHHKLRDQVLKALYDVLAKESEHPPQSILHTAKAIESEMNKVNNCDTNEAAYKARYRIIYSNVISKNNPDLKHKIANGDITPEFLATCDAKDLAPAPLKQKIEEIAKQNLYNAQGATIERSVTDRFTCGKCKEKKVSYYQLQTRSADEPLTTFCTCEACGNRWKFS
B6: Tos8p: yeast transcription factor suggested to be involved in RNA splicing and processing (protein, UniProt P53147 1-276, looked up)
Homeobox protein TOS8: MGTSIVNLNQKIELPPIQVLFESLNRENETKPHFEERRLYQPNPSFVPRTNIAVGSPVNPVPVSSPVFFIGPSPQRSIQNHNAIMTQNIRQYPVIYNNNREVISTGERNYIITVGGPPVTSSQPEYEHISTPNFYQEQRLAQPHPVNESMMIGGYTNPQPISISRGKMLSGNISTNSVRGSNNGYSAKEKKHKAHGKRSNLPKATVSILNKWLHEHVNNPYPTVQEKRELLAKTGLTKLQISNWFINARRRKIFSGQNDANNFRRKFSSSTNLAKF

Experiments:
Assay type in all cases: binding
RNA-polyA+ = test: Yeast proteome chip probed with biotin-labeled polyA+ RNA; conditions: Cy3-streptavidin
Text: (§1) Protein-DNA and protein-RNA interactions are important for many fundamental biological functions such as transcription regulation, chromosome segregation and maintenance, and RNA transport and processing (Williamson, 2000, Nat. Struct. Biol. 7(10):834-7). To explore the possibility of using a proteome chip to identify proteins that bind to DNA or RNA molecules, total yeast genomic DNA was labeled using Cy3-CTP and Klenow fragment, and polyA^+ was labeled using a biotinylated psoralen-derivative (31). Each probe was incubated with a different proteome chip (FIG. 3A).
(§2) The protein-nucleic acid interaction was assayed as follows. The nucleic acid robes were labeled as described by Winzeler et al. (1999, Science 285:901). Blocked proteome chips were washed three to five times in PBS buffer, and the extra liquid on the glass surface was removed by tapping the slides vertically on a KIMWIPE™. 200 μl of labeled nuclei acid probe ([…] poly(dC/dG); 100-300 mM NaCl; 50-300 mM HEPES, pH 7.0-8.5; 10 mM MgCl2) was added to the proteome chip and immediately covered by a hydrophobic plastic cover slip (GRACE BIO-LABS™, USA). After trapped air bubbles were removed, the chip was incubated in a humidity chamber in the dark at room temperature (“RT”) for one hour. To remove the cover slip, the chip was immersed into large volume of PBS buffer(>50 ml), so that the slip would float away. The chip was then moved to a second PBS bath (>50 ml) and washed 3×5 min with shaking in the dark at RT. To completely remove the liquid on the chip, the chip was spun to dryness at 1500-2000 rpm for 5-10 min at RT.
RNA-polyA^+ from exponentially growing cells was labeled with biotin and used to probe the proteome microarray. The positive signals were detected using Cy3-streptavidin. […] In addition to proteins that likely directly or indirectly interact with RNA, we found two transcription factors (Bur6p and Tos8p), one transcriptional silencer (Hst3p), six other proteins encoded by known ORFs, and seven proteins from uncharacterized ORFs.

total yeast genomic DNA = test: Yeast proteome chip probed with labeled genomic DNA; conditions: Cy3-labeled genomic DNA, visual inspection
Text: as §1, §2

calmodulin = biological target: T1, calmodulin (Homo sapiens, UniProt P0DP23); test: Yeast proteome chip probed with biotinylated calmodulin; conditions: biotinylated calmodulin in the presence of calcium
T1 construct: purchased CalBiochem, USA
Text: To test for protein-protein interactions, the yeast proteome was probed with calmodulin (11). Calmodulin is a highly conserved calcium-binding protein involved in many calcium-regulated cellular processes and has many known physical partners (Hook et al., 2001, Annu. Rev. Pharmacol. Toxicol. 41:471). The calmodulin probe was biotinylated, and bound probe was detected using Cy3-labeled streptavidin. As a control, the yeast proteome was probed with Cy3-labeled streptavidin alone.
Generally, protein-protein interactions can be assayed as follows. Blocked proteome chips are washed three to five times in PBS buffer, and the extra liquid on the glass surface is removed by tapping the slides vertically on a KIMWIPE™. 200 ∞l of biotinylated protein probe is added to the proteome chip and immediately covered by a hydrophobic plastic cover slip (GRACE BIO-LABS™, USA). After trapped air bubbles are removed, the chip is incubated in a humidity chamber at room temperature (RT) for one hour. To remove the cover slip, the chip is immersed into large volume of PBS buffer (>50 ml), and the slip should float away. The chip is then moved to a second PBS bath (>50 ml) and washed 3×5 min with shaking at RT. After removing extra liquid on the surface of the chip, at least 150 μl of Cy3- or Cy5-conjugated streptavidin (PIERCE™, USA; 1:2000 to 1:4000 dilution) is added to the surface and covered by a hydrophobic plastic cover slip (GRACE BIO-LABS™, USA). The chip is incubated for greater than 30 min in the dark at RT. The chip is then washed as described above. To completely remove the liquid on the chip, the chip is spun to dryness at 1500-2000 rpm for 5-10 min at RT.
• 1. S. Fields, Y. Kohara, D. J. Lockhart, Proc. Natl. Acad. Sci. 96, 8825 (1999); A. Goffeau et al., Science 274, 563 (1996). • 2 P. Ross-Macdonald et al., Nature 402, 413 (1999); J. L., DeRisi, V. R. Iyer, P. O. Brown, Science 278, 680 (1997); E. A. Winzeler et al., Science 285, 901 (1999). P. Uetz et al., Nature 403, 623 (2000); T. Ito et al., Proc. Natl. Acad. Sci. USA. 97, 1143 (2000) • 3 H. Zhu, M. Snyder, Curr. Opin. Chem. Biol. 5, 40 (2001). • 4 M. R. Martzen et al., Science 286, 1153 (1999). • 5 H. Zhu et al., Nat. Genet. 26, 283 (2000). • 6 G. MacBeath, S. L. Schreiber, Science 289, 1760 (2000). • 7 A. Caveman, J. Cell Sci. 113, 3543 (2000). • 8 P. Arenkov et al., Anal. Biochem 278, 123 (2000). • 9 D. A. Mitchell, T. K. Marshall, R. J. Deschenes, Yeast 9, 715 (1993). The expression vector pEGH was created by inserting an RGS-HisX6 epitope tag between the GST gene and the polycloning site of pEG(KG). The yeast ORFs were cloned using the strategy described previously (5), except every step was done in a 96-well format. Plasmid DNAs confirmed by DNA sequencing were reintroduced into both yeast (Y258) and E. coli (DH5a). […] 0.1 mM calcium was present in buffers in all subsequent steps. The chip was washed three times with PBS at RT. Cy3-conjugated streptavidin (Jackson IR, USA) (1:5000 dilution) was added to the chip and incubated for 30 min at RT. After extensive washing, the chip was spun dry and scanned using a microarray scanner; the data was subsequently acquired with the GENEPIX™ array densitometry software (Axon, USA). • 12 S. S. Hook, A. R. Means, Annu. Rev. […]

Molecule	binding of polyA+ RNA probe (RNA-polyA+)	binding of genomic DNA probe (total yeast genomic DNA)	calmodulin binding (calmodulin)
B1	identified		
B2	bound both the DNA and RNA probes	identified	
B3	identified		
B4			identified
B5			identified
B6	identified		
